Target: T1, short SARS-CoV-2 peptide (10 residues) of the ITC (SARS-CoV-2)
T1 chain: FKEELDKYFK
Assay: ITC

B1: WS6 (monoclonal antibody, IgG) (antibody, V domains shown)
VH: EVQFQQSGTVLARPGASVKMSCKASGYTFTNYWIHWVKQRPGQGLEYIGGTYPGNGDTTYNQKFKGKAKVTAVTPTSTAYMDLSSLTNEDSAVYYCTRTGSYFDYWGQGTTLTVSS
VL: QIVLTQSPAIMSASPGEKVTISCSATSSVSYIYWYQQRPGSSPKPWIYRTSNLASGVPVRFSGSGSGTSYSLTISNMEAEDAATYYCQQYQSYPPTFGAGTKLELK
Kd: 22 nM
